Test [1] addresses T1, human sclerostin (SOST) (human, UniProt Q9BQB4 24-213).
T1 construct: also called human SOST; h-SOST
T1 sequence (looked up): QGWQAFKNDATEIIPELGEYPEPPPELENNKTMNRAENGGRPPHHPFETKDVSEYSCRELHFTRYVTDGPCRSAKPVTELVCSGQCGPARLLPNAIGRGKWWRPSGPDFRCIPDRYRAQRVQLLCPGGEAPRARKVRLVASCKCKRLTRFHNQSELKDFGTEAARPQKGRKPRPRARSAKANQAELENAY
The experiment in a line: ELISA binding to human sclerostin (Test Example 1).

Test [2] concerns the target T1, human sclerostin (SOST). Description: blocking of human SOST binding to human LRP-6 (Test Example 2).

Results on one molecule are retold here after US20200199209A1 (JIANGSU HENGRUI MEDICINE, published 2020).

B1: murine anti-human SOST monoclonal antibody Ab-1 (antibody, V domains shown)
VH: EVQLQQSGPELVKPGTSVKIPCQTSGYTFTDYNLDWLKQRPGESLEWIGDIDPNNGDILYNQKFRDKATLTVDTSSNTAYLELRSLTSEDTAVYYCARRWAYYFDYWGQGTTLTISS
VL: NIVMTQTPKLLFVSAGDRITITCKASQSVSNDVAWYQQKPGQSPKLLIYYTSNRFTGVPDRFTGSGYGTDFTLTINTVQAEDLAVYFCQQDYSSPVTFGAGTKLELK
notes: Murine antibody from the hybridoma cell strain Ab-1; also called murine Ab-1
Regarding B1, a half-maximal response in the test with human sclerostin (SOST) [1] (EC50) required 0.701 nM. Also, in the test with human sclerostin (SOST) [2], the IC50 (commonly the concentration that gives 50% inhibition) was 9.91 nM.
